Test results published in patent publication US20260209316A1 (US Dept. of Health and Human Services, published 2026).
Numbering of substitutions follows the chain as printed.

B1: antibody 338S (antibody, V domains shown)
VH: EVQLVESGGGVVQPGRSLRLSCAASGFTFSQYGMHWVRQAPGKGLECVAVIWFDGSKKYYGDSVKGRFTISRDNSKNTLYLQMNSLRAEDTAVYFCARESLYYYDSGGHYYERGRIDYWGQGTLVTVSS
VL: DIQMTQSPSSLSASVGDRVTITCRASQDISNFLAWFQQKPGKAPKSLIYAASSLLSGVPSKFSGSGSGTDFTLTISSLQPEDFATYYCQQYNSYPPTFGQGTKLEIK
B2: Fab generated from 503S (Fab, V domains shown)
VH: QVQLVQSGAEVKKPGASVRVSCKASGYTFTSYYMHWVRQAPGQGLEWMGQINPSGGTTRYERKFQGRITVTRDTSTSTVYLELSSLRSEDTASYFCACLRDKVTYYDLWSGVDSVWGQGTLVTVSS
VL: DIQMTQSPSSLSASVGDRVTITCRASQDISTWLAWYQQKPEKAPKSLIYAASTLETGVPSRFSGSGSGTDFTLTISSLQPEDFATYYCEQYNGFPRTFGQGTKLDIK
notes: also called 503S Fab
B3: antibody 528S (antibody, V domains shown)
VH: EVQLAESGGGVVQPGRSLRLSCAASGFTFNSYGMHWVRQAPGKGLEWVAVIWDDGSKKYYADSVKGRFTISRDNSKNTLFLQMNSLRAEDTAVYYCARETIMFTFGEVIVSSRDNYYMDVWGKGTTVTVSS
VL: EIVLTQSPATLSLSPGERATLSCRASQSVSNYLAWYQQKPGQAPRLLIYDASTRAIGIPARFSGVGSGTDFTLTISSLEPEDFAVYYCQQRSNWPPLTFGGGTKVEIK
B4: antibody 365S (antibody, V domains shown)
VH: EVQLVESGGGLVQPGGSLRLSCAASGLTFSAYEMNWVRQAPGKGLEWVSHITTSGSAIYYADSVKGRFTISRDNAKNSLHLQMNRLRADDTAVYFCARDSTIVQCSGTSCHVSTYSYMDVWGKGTTVTVSS
VL: EIVLTQSPATLSLSPGERATLSCRASQSVTTYLAWYQHKPGQAPRLLIYDASKRATGIPARFSGSGSGTDFTLTISSLEPEDFAVYHCQQRSSWPPITFGQGTRLEIK
B5: antibody 285S (antibody, V domains shown)
VH: QVQLVQSGAEVKKPGSSVKVSCKASGGTFSTYAITWVRQAPGQGLEWMGRIIPILRVANYAQKFQGRVTITADSSTSTAYMELSSLRSEDTAVYYCANLLAYCGGDCRSDYWGQGTLVTVSS
VL: EIVLTQSPGTLSLSPGERATLSCRASQSVKNSYLAWYHQKPGQAPRLLIYGASSRATGIPDRFSGSGSGTDFTLTISRLEPEDFAVYYCQQYGSSLWTFGQGTKVDVK
B6: Fab generated from 233S (Fab, V domains shown)
VH: EVQLVESGGGLGQPGGSLRLSCAASGFKFKIFGMNWVRQAPGKGLEWVSYISSRSSIIYYADSVKGRFTISRDDATNSLFLQMNSLRDEDTAMYYCVRDYNLIDFVWGSLFDYWGQGILVTVSS
VL: AIRMTQSPSSLSASTGDSVTITCRASQNIASYLAWYQQIPGKAPKLLIYVASTLQSGVPSRFSGSGSGTDFTLTISSLQSEDFATYYCQQYYRYPPTFGQGTKVEIK
B7: antibody 315S (antibody, V domains shown)
VH: EVQLVESGGGVVQPGRSLRLSCAASGFTFKTYTMHWVRQAPGKGLEWVAVITDDGVNKKYADSVKGRFTISRDNSKNTLYLQMNSLRLEDTAVYYCARSVVVLAAYPLDYWGQGTMVTVSS
VL: DIQMTQSPSSLSASVGDRVTITCRASQTISTYLHWYQQRPGKAPKLLIYAASSLQSGVPSRVSGSGSGTDFTLTITSLQPEDFATYYCLQTYSLPLTFGGGTNVEIK
B8: antibody 203S (antibody, V domains shown)
VH: QVQLVQSGAEVKKPGSSVKVSCKASGGTFSSYAISWVRQAPGQGLEWLGRILPALGLANYAQKYQDRVKITADKSTSTAYMELSRLGSEDTAVYYCARDRWVGAARRGQYFDYWGQGTQVTVSS
VL: DIQMTQSPATLSASVGDRVTITCRASQSIGTWLAWYQQKPGKAPKLLIYDASSLESGVPPRFSGSGSETEFTLTISSLQPDDFATYYCHQYKSYSYTFGQGTKLEIK
B9: antibody 382S (antibody, V domains shown)
VH: QVQLVQSGAEVKKPGSSVKVSCKASGGTFSNYGISWVRQAPGQGLEWMGRNIPIIGIANYAQKFQDRVTITADKSTSTVFMELRSLRYEDTAVYYCARDPLAARRGNWFDPWGQGTLVTVSS
VL: B8 VL with A9S, I29V, G30S, T31S, S53T, E55Q, P60S, E68G, H89Q, K92N
B10: Fab generated from 354S (Fab, V domains shown)
VH: QVQLVQSGAEVKKPGASVKVSCKASGYSFASYYIHWVRQAPGQGLEWMGIINPSGGTTSYAQKFQGRVTMTRDTSTSTVYMELSSLGSEDTAVYYCARIVDRVTIYLNGVDNYWGQGTLVTVSS
VL: EIVMTQSPATLSVSPGERVTLSCRASQSVSSNLAWFQQTPGQAPRLLIYGASTRASGVPARFSGSGSGTEFTLTISSLQSEDFAVYYCLQYNNWPPGWKYGFGQGTKLEIK
notes: also called 354S Fab
B11: antibody 405S (antibody, V domains shown)
VH: EVQLVESGGGLIQPGGSLRLSCAASGFTVSSHYMSWVRQAPGKGLEWVSGIYSGGRTHYADSVKGRFTISRDNSKNTLYLQMNSLRADDTAVYSCARGTLLYLYGMDVWGQGTTVTVSS
VL: QSVLTQPPSVSAAPGQRVTISCTGSSSNIGAGYNVHWYQQLPGAAPKLLIYGNTNRPSGVPDRFSGSKSGTSASLAITGLQAEDEADYYCQSFDSSLSGVFGTGTKVTVL
B12: antibody 377S (antibody, V domains shown)
VH: QVQLVQSGAEVKKPGSSVKVSCKASGGTFSNYAINWVRQAPGQGLEWMGRTIPFLGLTNYAENFQARVTITADKSTGTSYMQLSSLRSEDTAVYFCAKAATSGWSPFDNWGQGTLVTVSS
VL: EIVLTQSPGTLSLSPGERATLSCRASQSISSSYFGWYQQKPGQAPRLLIYGASRRAAGIPDRFSCSGSGTDFTLTISRLEPEDFGVYYCQQYGSSPTFGQGTKVEIK
B13: antibody 335S (antibody, V domains shown)
VH: EVQLVESGGGVVQPGRSLRLSCAASGFSFSNYAMHWVRQAPGKGLEWVAVTWYDGSSKYHADSVKGRFTISRDNSKNTLYLQMNSLRAEDTAVYYCARWGMGIVASPGNVLNYYYFMDVWGQGTTVIVSS
VL: SYELTQPPSVSVSPGQTARITCSGNPLPKKHTYWYQQKPGQAPVLMIYKDSERPSRIPERFSGSSSGTTVTLTISGVQAEDEADYYCQSADSTGIVVFGGGTKLTVL
B14: Fab generated from 241S (Fab, V domains shown)
VH: QVQLVQSGSELKKPGASVKVSCKASGYTFTSYTVNWVRQAPGQGLEWMGWINTNTGNPTYAQGFTGRFVFSSDTSVSTAYLQISDLKAEDTAMYYCARHVAYDLWSGHTVTFDHWGQGTLVTVSS
VL: QSALTQPPSASGSPGQSVTISCTGTSSDVGAYNYVSWYQQHPGKAPKLIIYEVTKRPSGVPDRFSGSKSGNTASLTVSGLQAEDEADYYCSSKAGGKTYVFGTGTKVTVL

Columns and labels:
[1] = target: T1, full-length Sudan GP (GPFL) (Sudan virus (SUDV), UniProt Q7T9D9 33-650); assay: ELISA on coated GP
T1 construct: also called Sudan GPFL; GP(S)FL
T1 sequence: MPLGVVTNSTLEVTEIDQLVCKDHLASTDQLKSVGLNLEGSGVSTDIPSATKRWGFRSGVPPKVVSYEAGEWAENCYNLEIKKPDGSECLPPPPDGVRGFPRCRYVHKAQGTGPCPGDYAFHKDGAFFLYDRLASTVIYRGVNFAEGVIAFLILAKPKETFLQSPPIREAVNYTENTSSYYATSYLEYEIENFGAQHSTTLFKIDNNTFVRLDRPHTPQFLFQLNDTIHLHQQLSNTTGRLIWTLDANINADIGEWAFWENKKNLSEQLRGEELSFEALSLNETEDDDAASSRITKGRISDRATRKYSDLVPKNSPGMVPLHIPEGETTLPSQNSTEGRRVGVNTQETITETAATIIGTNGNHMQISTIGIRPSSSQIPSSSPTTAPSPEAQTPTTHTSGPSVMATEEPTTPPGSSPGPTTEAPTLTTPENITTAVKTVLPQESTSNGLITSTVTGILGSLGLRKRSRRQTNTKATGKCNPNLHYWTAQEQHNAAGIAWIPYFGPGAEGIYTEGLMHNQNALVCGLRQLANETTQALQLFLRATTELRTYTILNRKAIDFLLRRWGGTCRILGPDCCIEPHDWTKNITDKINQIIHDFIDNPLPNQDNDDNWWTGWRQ

[2] = target: T2, SUDV GP on pseudotyped lentiviral vector (Sudan virus (SUDV), UniProt Q7T9D9 33-676); assay: cell-based or functional assay
T2 sequence: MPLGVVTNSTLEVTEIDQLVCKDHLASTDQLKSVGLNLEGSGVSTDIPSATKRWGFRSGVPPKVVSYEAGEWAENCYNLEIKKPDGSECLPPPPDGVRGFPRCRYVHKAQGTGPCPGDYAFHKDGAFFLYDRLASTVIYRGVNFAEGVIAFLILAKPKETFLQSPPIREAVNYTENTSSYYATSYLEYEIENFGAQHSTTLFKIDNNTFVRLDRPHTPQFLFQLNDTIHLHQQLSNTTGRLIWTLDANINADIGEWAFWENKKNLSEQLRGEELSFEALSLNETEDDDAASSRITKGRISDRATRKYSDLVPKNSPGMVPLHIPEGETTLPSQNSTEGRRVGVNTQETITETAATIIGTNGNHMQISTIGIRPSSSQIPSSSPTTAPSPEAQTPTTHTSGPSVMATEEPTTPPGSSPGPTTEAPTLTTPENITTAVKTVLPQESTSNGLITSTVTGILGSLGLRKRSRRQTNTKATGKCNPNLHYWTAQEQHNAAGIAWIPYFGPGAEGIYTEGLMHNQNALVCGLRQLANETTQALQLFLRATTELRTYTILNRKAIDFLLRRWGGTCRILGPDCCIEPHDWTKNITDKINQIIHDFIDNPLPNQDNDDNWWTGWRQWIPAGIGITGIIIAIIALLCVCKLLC

[3] = target: T1, full-length Sudan GP (GPFL); assay: BLI, Fab, pH 5.3
[4] = target: T1, full-length Sudan GP (GPFL); assay: BLI, Fab, pH 7.4

Row | Binder | EC50 [1] | IC50, microneutralization of GP-pseudotyped lentiviral vector on HEK293 cells [2] | Kd [3] | koff [3] | kon [3] | Kd [4] | koff [4] | kon [4]
1 | B1 | 0.03 µg/mL | 0.6 µg/mL |  |  |  |  |  | 
2 | B2 |  |  | 6.58 nM | 0.000373 s⁻¹ | 56700 M⁻¹ s⁻¹ | 19.5 nM | 0.00111 s⁻¹ | 56800 M⁻¹ s⁻¹
3 | B3 | 0.05 µg/mL | 0.58 µg/mL |  |  |  |  |  | 
4 | B4 | 0.11 µg/mL | 0.79 µg/mL |  |  |  |  |  | 
5 | B5 | 0.02 µg/mL | 0.64 µg/mL |  |  |  |  |  | 
6 | B6 |  |  | 7.56 nM | 0.000358 s⁻¹ | 47300 M⁻¹ s⁻¹ | 7.53 nM | 0.000543 s⁻¹ | 72100 M⁻¹ s⁻¹
7 | B7 | 0.01 µg/mL | 0.15 µg/mL |  |  |  |  |  | 
8 | B8 | 0.5 µg/mL | 0.04 µg/mL |  |  |  |  |  | 
9 | B9 | 0.35 µg/mL | 0.71 µg/mL |  |  |  |  |  | 
10 | B10 |  |  | 6.12 nM | 0.000445 s⁻¹ | 72700 M⁻¹ s⁻¹ | 8.89 nM | 0.00076 s⁻¹ | 85600 M⁻¹ s⁻¹
11 | B11 | 0.06 µg/mL | 0.79 µg/mL |  |  |  |  |  | 
12 | B12 | 0.14 µg/mL | 0.56 µg/mL |  |  |  |  |  | 
13 | B13 | 0.02 µg/mL | 0.63 µg/mL |  |  |  |  |  | 
14 | B14 |  |  | 6.36 nM | 0.000433 s⁻¹ | 68200 M⁻¹ s⁻¹ | 3.47 nM | 0.000439 s⁻¹ | 127000 M⁻¹ s⁻¹
